Data as given in the supplement of paper PMC12042874.
± gives the uncertainty stated by the source.

test: amyloid nucleation score (Sup35N fusion, yeast selection) (log enrichment); library NNK1; higher = more nucleation; inactive = no reads after selection
Outline: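 The nucleation score is the log enrichment of output over input reads, calculated with DiMSum and centred on the mode score of non-aggregating sequences. Sequences with under 100 input reads were excluded. Reads came from Illumina sequencing of plasmid inserts from psi-negative yeast expressing Sup35N fused to peptides of 20 random codons, induced 24 hours with 100 μM copper sulfate and grown 7 days at 30°C without adenine and uracil.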

Substance | amyloid nucleation score
DMCNLTRLPLVYFM | -0.037 ± 1.7
IFPCNFSGNYLRKVWFPVRY | 0.42 ± 0.91
GKVAPFRDSGNIIADGNIHE | -0.219 ± 0.47
RSWLLIKLTSQHASKMLVTG | 0.569 ± 0.46
LLWDCVNLEGIEQFYCPHSD | 0.382 ± 0.44
IGESVHKLSFWCDSGECF | 0.073 ± 0.31
SSFRKTLLMVIYARNEGCMS | 0.471 ± 0.97
ASAWARNVVRSTVMKVSWVG | 0.543 ± 0.45
FSRKINVYG | -0.396 ± 0.66
LRDDRFLMKLHYKKQDSSCV | 0.324 ± 0.53
AIPRSVITRFLSCLAIEAWQ | 0.627 ± 0.41
GFCNYMSFCFHIDASE | 7.587 ± 0.056
FTLHVSFRGSDDIKSVFYCS | 3.29 ± 0.11
IGMQLMVKTSLRHYGMYHTA | 1.65 ± 0.44
GMSDRQWYMTRTYCLSGPAV | 0.134 ± 0.23
GVTMVISPPYVMAGRSDMFL | -0.031 ± 0.65
IGALTSHAHQNVCVCNLLKD | 0.307 ± 0.81
FASKRWLWSVEQLSRLSNGT | -0.087 ± 0.21
MYQVHTVSTVKIEMAYHAQG | 1.67 ± 0.26
SLNFT | -0.337 ± 0.31
WCGKACFVYKSHGQGG | 0.235 ± 0.53
RSLALEKLCSWSV | -1.38 ± 2.7
TENCDLCKQLAAVLC | -0.812 ± 0.93
IYLCLATYFLYPRLVWTSTL | 0.521 ± 0.72
FSHKRW | -0.479 ± 0.48

Substance | amyloid nucleation score
IPMPLCCVIPPWFTTFFVNQ | 4.81 ± 0.092
FMPFASKCGCPN | 0.595 ± 0.41
VAPQGNPMWSKDLL | 1.8 ± 0.18
MEKLGAPYRFREPGMFVRFF | -1.1 ± 0.62
LAWSEYLMCLTRCHPIAV | 0.414 ± 0.54
HPPNFVNVSW | -0.023 ± 0.51
GYEEFGVGRTSVPMETARLK | -0.406 ± 0.44
GLEWGGVKTQMKSWTMRMGG | -1.4 ± 1.6
CWFANRSLPVQIPRVW | -0.394 ± 0.48
EFNDCGSLWFGFIRYIILMN | 0.081 ± 0.25
GFGGSGLTWGSRVCGV | -1.5 ± 2.4
GSLFYVRLLYRGCNTEITSK | 0.925 ± 1.1
IKMSSRYFMLGTLLSPGLEV | inactive
KIMCELCNSVRNALWRTLRG | -0.01 ± 0.71
ENGLFKF | 0.695 ± 0.32
IISISINGSVRWSCTRSGAD | 0.499 ± 0.53
ERNRHKVIMFMTSPWEMVIL | -1.06 ± 2.4
SFRKRQVVLVSANNDSVWKC | -0.097 ± 0.57
TARYTGGNTNIRSGKFLVWI | 0.075 ± 0.35
DFIKTTQSFQYQRAD | -0.717 ± 0.26
TIFNLLPMGC | 0.975 ± 0.58
FTCSTYNCWGVHS | 1.26 ± 0.37
VAEVKRFCELLLK | -0.29 ± 1.7
WYYITS | 0.295 ± 0.67
ALSFHYKNLVNT | 0.027 ± 0.49

Substance | amyloid nucleation score
FEDIRYDRKVWGICALSNCA | 0.814 ± 0.47
DSVLLRFYDCCEMFYLHSLL | 0.48 ± 0.67
QYVMSLITVQQYRSEFSAVM | 0.263 ± 0.25
LDLSNDGRFYKGREGAISCR | 0.049 ± 0.31
MLSKIFAHYSWSQAVTRAWG | 1.75 ± 0.58
DSGLLMKVSWKSDNC | -0.284 ± 0.39
KYMTDIIT | 0.413 ± 0.2
PGVNKVHLYKESIIYLLAVS | inactive
ISIRIEDFLYSQ | 0.237 ± 0.57
IATFGVTMSNSWT | 2.84 ± 0.13
MEVKISVRFQFVLI | -0.355 ± 0.6
FFFYKPMNVEAIRDLHWPYS | 6.229 ± 0.06
VFPDASSMRVRGGIDTAQEL | 0.037 ± 0.46
LGWSGMVGFG | 0.08 ± 0.81
VNSRCLSAYTK | 0.46 ± 0.34
ANMDWGRAMFWDGRVGMVRS | -0.645 ± 1.7
LMKYWYDVHRNESGITSNNI | -1.26 ± 0.42
MLFNTHHVYLSTM | 0.987 ± 0.53
RIANQ | -0.086 ± 0.51
RYLFLDWSSESRCPFAASNE | 0.104 ± 0.84
GRTVPDYLMVRSATNIRYGF | -1.19 ± 1.7
VGVVCLKFLP | -0.064 ± 0.43
WYEVRYMLTQSYRVHMLFLI | -0.322 ± 1.7
MCDGTFCGSSSGHCSASLRH | 0.728 ± 0.35
RFIFIQRVNRVFLQDSWKMV | 6.39 ± 0.075

Substance | amyloid nucleation score
LNTFTVLMLWMLLQNVAFIL | -1.37 ± 2.1
YPSVADRHAILHR | 0.219 ± 0.74
VNLGVRAGGLCRHAEKGDMT | -0.364 ± 0.53
ALVYANPMTVWPSGSLTSVL | 0.685 ± 0.47
GLGCSSLCQLMN | 0.983 ± 0.56
RLNRVSVLLFPTFDLPPFLE | 2.68 ± 0.098
LAFKGAITPSDFGLNNRYRF | -0.037 ± 1.4
CGQLACVEPNWLSIKVMFRN | inactive
DVGLFMK | -0.686 ± 0.53
YSHYNGTVAYRWEPQ | 0.901 ± 0.47
GNFMRLRWNVKFL | -0.016 ± 0.72
LETRLVYLWENLPLAQTNVA | 0.238 ± 0.48
GFKPWVVCWTWQAAPKVRSP | 0.702 ± 0.73
IIFNEIIHMQFDNIGDV | 3.27 ± 0.17
IQNDCILVNSVSWYCVSGPP | 5.29 ± 0.064
NLEHKCVFVLHMKTLIISQP | 0.664 ± 1.2
LLGDKLV | -0.096 ± 0.46
HNTSLYVTLNSSTR | 6.2 ± 0.09
ILGVSMPPFYSV | -0.532 ± 0.84
EFLDELSGVVYSLLGYEVTR | 2.63 ± 0.13
SNRFVPSNSSKVGSNVIDAK | 0.386 ± 0.36
LREFPFYFTISLRITLFMSL | -0.391 ± 0.23
LSVGLKVDDEDQRLTYFVTI | -0.614 ± 0.62
DVDYLYPLYLVAGFMTNVRK | 0.535 ± 0.25
LSFSMGYNYELATTKWSVVF | 1.3 ± 0.41

Substance | amyloid nucleation score
VYIVCYFLHTGSFGWTCCVE | inactive
MDALMCYIFFKFE | 4.89 ± 0.064
QGLSGDDCLHGNFKFHMSET | -0.243 ± 0.32
WSRTDRDDLLVYMKLPRHVY | 0.472 ± 0.37
NDSACIRRSIGSHSFSSCSV | 0.766 ± 0.84
SCSPPIA | 0.223 ± 0.46
VHSWQVVRYFRFLVLYSWDR | 0.539 ± 0.42
LNFWGACLIHYSWQNTIVLV | 2.28 ± 0.16
WKRSEINDVFVM | inactive
SFLNMGCRTVYRC | 0.331 ± 0.61
FLSVFRL | -0.884 ± 1.1
VVLQTTPSAYSIMVHLWYYS | 0.472 ± 0.46
SPSES | -0.31 ± 0.61
IFHGWVTGCCLVDNLLFYCT | 5.42 ± 0.1
IAMKPENK | -0.997 ± 0.57
HFPSHLVLRETERFKQLHCG | 0.374 ± 0.62
WVWFCNEF | -0.307 ± 0.57
YYYVWNFGGWIGFRNVVSIR | 0.05 ± 0.98
VAVLGNFL | inactive
DINFNDGICGIKLYCYCISN | -0.713 ± 1.7
PTDRVVLNCM | inactive
FLVVETI | inactive
FLSICVDSVKFVFGGVWTSQ | -0.882 ± 0.53
YFVQYLYTLMLACYYWVISY | -1.61 ± 1.4
HVSSSE | -0.174 ± 1.1

Substance | amyloid nucleation score
VSLLKGRVAMSRG | 1.1 ± 0.38
VLYELSKMGYRVLLYTHPDR | 0.125 ± 0.46
TYYTVTEISHVGWTYFGYVR | -0.151 ± 0.64
QSTMIASMRYSFFACAVLYI | 0.074 ± 0.51
VYVIIWSIILGRTVAGWMYY | inactive
IYLKWHFADY | 0.529 ± 0.45
HLSLGINVPTCFLSEKALLV | 1.25 ± 0.68
NFPVPLRNDLKLAFMQNLNS | -0.531 ± 0.3
RKGSGSRLKIYVYVTVTKIG | 0.52 ± 0.93
ISGSHFVSLPV | 0.518 ± 0.38
ISLDFDNYRVILLKRLVGVM | -0.594 ± 0.33
IYMMECEVL | -0.157 ± 0.42
PWISFTKYKTLSYETHPGWF | 0.544 ± 0.79
VSNRTVNDGYGSSGAALCLR | 0.099 ± 0.44
WHPYYIQVKGILALLSSVHH | 3.18 ± 0.073
FSCVIGFPKHRNDTLVTERA | 6.65 ± 0.067
SNWLFWFIKMGQFQDSICYA | -0.616 ± 1.4
RASKFGLLGHMAYSIYHYVM | -0.974 ± 1.7
PITFS | 0.448 ± 0.68
NTSSLVMVSCDTPRYTNTEV | -1.04 ± 0.72
TARFLTKFAPGQSMNAYRCG | -0.033 ± 0.6
VDVSNLKCLQE | 0.335 ± 0.42
GIYGQWTQ | 0.697 ± 0.85
RNKNFPSKGDLNQGGRNNIK | 0.877 ± 0.4
LGYAYSEPPWRLMVNWSPSA | 1.66 ± 0.16

Substance | amyloid nucleation score
YKSLMFWLVLVSVFMIRRNI | 2.62 ± 0.26
SVFRSSVCLLANDGVFSMNV | 0.355 ± 0.39
VVDLVHVCSFFTFYVCATLL | 1.66 ± 0.6
SNGLGMVRDR | -0.172 ± 0.67
NRANSVVGQACRKSVIRNRF | -0.144 ± 0.32
RFNTWFVNYLCHPLYSLEG | 5.55 ± 0.064
FHLPALTSSLPA | 0.102 ± 0.35
IQYNSKIRVFALDYPIEFPC | 0.083 ± 0.61
VLAVCKVYASWYFTFWMF | 4 ± 0.088
PSSKCGCWTTPEMIEGYRNL | -0.119 ± 0.51
SYLGTHRFTECILDRVCTLQ | 0.125 ± 1.4
FCILFSLIVTVGSLLRFLYR | 2.01 ± 0.1
PLFLQCLWKNSLDLGMKDLS | -0.327 ± 1.4
HEYDLDKGTS | inactive
DTNFYLFMTHG | 0.244 ± 1
ANSGTRIRFYICWFKSETTW | 1.87 ± 0.1
VPSNLQGSPFPQLGMSALVH | 0.149 ± 0.62
PLYLW | inactive
KYKDFLGSISDLDWII | -0.464 ± 1.4
FLRKHHSIMMVFMRIQGLRM | -1.72 ± 1.7
HGKYQGTDRYAETGSISGGT | -0.395 ± 0.37
RLVLSGWNVTVNSILYQGFI | 6.078 ± 0.06
